Patent publication US20250354175, “ATTP MV4-DERIVED SITE-SPECIFIC RECOMBINATION AND ITS USE FOR INTEGRATION OF SEQUENCE OF INTEREST” (INSTITUT NATIONAL DE RECHERCHE POUR L'AGRICULTURE, …, published 2025)

T1: mv4Int (369 aa integrase) (Lactobacillus delbrueckii bacteriophage …)
T1 chain: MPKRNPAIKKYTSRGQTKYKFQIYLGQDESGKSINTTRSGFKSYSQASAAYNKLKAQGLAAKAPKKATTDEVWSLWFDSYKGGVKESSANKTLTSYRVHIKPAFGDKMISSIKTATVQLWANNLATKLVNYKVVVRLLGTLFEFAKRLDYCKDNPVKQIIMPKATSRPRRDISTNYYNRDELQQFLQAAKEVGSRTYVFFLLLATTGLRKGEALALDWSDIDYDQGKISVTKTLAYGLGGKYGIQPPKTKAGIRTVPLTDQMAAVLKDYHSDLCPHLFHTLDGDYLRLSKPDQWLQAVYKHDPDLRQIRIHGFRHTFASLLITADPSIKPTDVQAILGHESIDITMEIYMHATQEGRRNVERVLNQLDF

B1: COC' WT core-attP 35 bp (dsDNA)
DNA 1: GGTATTGGAAAGAACCTGTACTCTCCTTGCGTAAC
DNA 2: GTTACGCAAGGAGAGTACAGGTTCTTTCCAATACC
B2: BOB' WT attB 35 bp (dsDNA)
DNA 1: GGTATTGTTCAAATCCTGTACTCTCCTTGCGTAAC
DNA 2: GTTACGCAAGGAGAGTACAGGATTTGAACAATACC

Assays:
[1] = biological target: T1, mv4Int (369 aa integrase); assay: EMSA; stable with P'12 arm DNA; unstable without; room temperature, polydIdC; settings: tags: expressed from pET15b; label: Cy3 on bottom strand
Method: 5′ Cy3 end-labelled synthetic oligonucleotides (HPLC purified) were obtained from Eurofins. Labelled double strand DNA substrates were prepared by hybridization of complementary oligonucleotides (Table 7C) in 10 mM Tris pH 7.5, 50 mM NaCl by incubating the samples 5 min at 95° C. in a thermal cycler (Biorad) and decreasing the temperature of 1.5° C./min until it reaches 25° C. Binding reactions (20 μl) were performed with 0.87 pmol of labelled core- or arm-type DNA and 4.48 pmol of unlabelled arm- or core-type DNA in buffer containing 25 mM Tris pH 8, 75 mM NaCl, 10% glycerol, 0.5 mM DTT, 0.5 mM EDTA, 1 μg polydIdC (Sigma), 0.1 mg/ml BSA. The protein was added, the reaction performed at room temperature for 20 min and samples were loaded onto a non-denaturing 7.5% polyacrylamide gel (Mini-PROTEAN TGX, Biorad). The gels were run at 4° C., 75V for 2 h.
However, if DNA containing the P′1-P′2 arm-binding sites was added to the reaction, the inhibition was removed and ^λInt was able to stably bind to the core-binding sites. […]

[2] = biological target: T1, mv4Int (369 aa integrase); assay: EMSA; with arm DNA; complex III increases with mv4Int; settings: tags: expressed from pET15b; label: Cy3 on bottom strand
Method: However, if DNA containing the P′1-P′2 arm-binding sites was added to the reaction, the inhibition was removed and ^λInt was able to stably bind to the core-binding sites. To determine if ^mv4Int N-ter domain also exerts such inhibitory effect on its C-ter domain, they compared the ^mv4Int binding to a labelled 35-bp dsDNA containing the 21-bp core-attP region (Table 7C), in the presence or absence of unlabelled dsDNA containing the P′1 and P′2 arm-type binding sites (Table 7C). ^mv4Int binding to the COC′ sequence appeared quite unstable, as only faint bands and strong background smear can be observed (lane 3, FIG. 8A). Addition of a 28-bp dsDNA containing the P′12 sequences (Table 7C) greatly stimulates and stabilizes ^mv4Int binding to the core-attP sequence and led to the formation of three complexes (lane 4, FIG. 8A). […] To ensure that the stabilization effect was due to the binding of the N-ter domain of ^mv4Int to the arm-type binding site, the 28-pb P′12 dsDNA was replaced by a DNA duplex of 40 pb containing the P′1 and P′2 sites (Table 7C). A stabilization effect on the binding to the COC′ sequence was observed (lane 5, FIG. 8A), with the formation of two complexes (II* and III*) of mobility lower than the complexes observed with the 28-bp P′12 fragment. […]

| Binder | binding result [1] | binding result [2] |
| --- | --- | --- |
| B1 | binds |  |
| B2 |  | binds |
